This data set deals with the molecule itself. The data set is described as follows: Thioflavin T amyloid formation assay.

Results on one protein are retold here after PMC3684756 (MicrobiologyOpen, 2013).

B1: His-Lsm4^1–170 (domain or fragment)
chain: MLPLYLLTNAKGQQMQIELKNGEIIQGILTNVDNWMNLTLSNVTEYSEESAINSEDNAESSKAVKLNEIYIRGTFIKFIKLQDNIIDKVKQQINSNNNSNSNGPGHKRYYNNRDSNNNRGNYNRRNNNNGNSNRRPYSQNRQYNNSNSSNINNSINSINSNNQNMNNGLG
Regarding B1, the binding result was “binds”.
